Paper PMC11764276 (Molecular Therapy, 2024)

Legend:
[1] = target: T1, RBD (residues 334–527 of the SARS-CoV-2 spike glycoprotein) (SARS-CoV-2, wild type (Wuhan-Hu-1 / …, UniProt P0DTC2)); assay: cell-based or functional assay
[2] = target: T1, RBD (residues 334–527 of the SARS-CoV-2 …); assay: SPR; Biacore 8k; antibody captured on a Series S Protein A chip to ~200 RU or greater; 4X serially diluted RBD starting at 1,000 nM flowed at 50 uL/min, 120 s contact, 600 s dissociation; HBS-EP+ buffer; 1:1 Langmuir fitting, steady state analysis, or two-state reaction fitting; conditions: both partners purified
[3] = target: T1, RBD (residues 334–527 of the SARS-CoV-2 …); assay: ELISA; plates coated with anti-his antibody, 10 ug/mL COV2_RBD-his captured; antibody from 8 ug/mL, 5X dilution series, in duplicate, 1 h at RT; anti-human-Fc-HRP detection; AUC divided by that of 2196 WT; conditions: both partners purified

B1: 2196 WT (recombinant mAb COV2-2196) (antibody, V domains shown)
VH: QMQLVQSGPEVKKPGTSVKVSCKASGFTFMSSAVQWVRQARGQRLEWIGWIVIGSGNTNYAQKFQERVTITRDMSTSTAYMELSSLRSEDTAVYYCAAPYCSSISCNDGFDIWGQGTMVTVSS
VL: not shown
notes: heavy chain of COV2-2196 (IGHV1-58); light chain of COV2-2196 (IGKV3-20); Whole human IgG (captured on Protein A, detected by anti-human Fc); HC vector with IgG VH leader (UniProt Q9Y298), LC vector with IGKV4-1 leader (UniProt P06312); also called WT 2196; COV-2196
IC50 of neutralization of SARS-CoV-2 (USA-WA1/2020 spike) pseudovirus on HuCHOAce2 cells [1]: 0.08 ng/mL | Kd [2]: 1.8 nM

B2: DMAb-2196_AFS_(AA_NT)_var2 (antibody, V domains shown)
VH: QMQLVQSGPEVKKPGTSVKVSCKASGFTFMSSAVQWVRQARGQRLEWIGWIVIGSGNTNYAQKFQERVTITRDMSTSTAYMELSSLRSEDTAVYYCAAPYCSSISCNDGFDIWGQGTMVTVSS
VL: EVVLTQSPGTLSLSPGERATLSCRASQTISNSYVAWYQQRPGQAPRLLIYGASSRAAGIPDRFSGSGSGTDFTLTISRLEPEDFAVYYCQHYGSSRGWTFGQGTKVEIK
notes: Whole human IgG; also called AFS variant var2
IC50 of neutralization of SARS-CoV-2 pseudovirus on HuCHOAce2 cells [1]: 0.05 ng/mL | Kd [2]: 1.6 nM

B3: DMAb-2196_AFS_(AA_NT)_var3 (antibody, V domains shown)
VH: QMQLVQSGPEVKKPGTSVKVSCKASGFTFMSSAVQWVRQARGQRLEWIGWIVIGSGNTNYAQKFQERVTITRDMSTSTAYMELSSLRSEDTAVYYCAAPYCSSISCNDGFDIWGQGTMVTVSS
VL: EVVLTQSPGTLSLSPGERATLSCRASQSVSSSYLAWYQQKPGQAPRLLIFGASSRATGIPDRFSGSGSGTDFTLTITRLEPEDSAVYYCQHYGSSRGWTFGQGTKVEIK
notes: Whole human IgG; also called AFS variant var3
IC50 of neutralization of SARS-CoV-2 pseudovirus on HuCHOAce2 cells [1]: 0.06 ng/mL | Kd [2]: 3.2 nM

B4: 2196_CDRL3_Q (antibody, V domains shown)
VH: QMQLVQSGPEVKKPGTSVKVSCKASGFTFMSSAVQWVRQARGQRLEWIGWIVIGSGNTNYAQKFQERVTITRDMSTSTAYMELSSLRSEDTAVYYCAAPYCSSISCNDGFDIWGQGTMVTVSS
VL: not shown
notes: Whole human IgG; also called DMAb-Q
AUC ratio to 2196 WT [3]: > 0.975 | fold change of IC50 against 2196 WT [3]: < 2.14 fold

B5: 2196_CDRL3_GP (antibody, V domains shown)
VH: QMQLVQSGPEVKKPGTSVKVSCKASGFTFMSSAVQWVRQARGQRLEWIGWIVIGSGNTNYAQKFQERVTITRDMSTSTAYMELSSLRSEDTAVYYCAAPYCSSISCNDGFDIWGQGTMVTVSS
VL: not shown
notes: Whole human IgG; The designs are said to be based on positions 95 and 95A, so the proline probably stands at 95A; also called DMAb-GP
AUC ratio to 2196 WT [3]: > 0.975 | fold change of IC50 against 2196 WT [3]: < 2.14 fold

B6: 2196_CDRL1_des2 (antibody, V domains shown)
VH: QMQLVQSGPEVKKPGTSVKVSCKASGFTFMSSAVQWVRQARGQRLEWIGWIVIGSGNTNYAQKFQERVTITRDMSTSTAYMELSSLRSEDTAVYYCAAPYCSSISCNDGFDIWGQGTMVTVSS
VL: EIVLTQSPGTLSLSPGERATLSCRASQTISNSYVAWYQQKPGQAPRLLIYGASSRATGIPDRFSGSGSGTDFTLTISRLEPEDFAVYYCQHYGSSRGWTFGQGTKVEIK
notes: as the heavy chain of m2; as the light chain of m2, with the CDRL1 and CDRL1-adjacent residues of alphamod1 but residues 31 and 32 kept as in 2196 WT; Kabat numbering; Whole human IgG; also called DMAb-Des2; DMAb-2196_Des2
AUC ratio to 2196 WT [3]: > 0.975 | fold change of IC50 against 2196 WT [3]: < 2.14 fold

B7: DMAb-2196_des2_GP (antibody, V domains shown)
VH: QMQLVQSGPEVKKPGTSVKVSCKASGFTFMSSAVQWVRQARGQRLEWIGWIVIGSGNTNYAQKFQERVTITRDMSTSTAYMELSSLRSEDTAVYYCAAPYCSSISCNDGFDIWGQGTMVTVSS
VL: EIVLTQSPGTLSLSPGERATLSCRASQTISNSYVAWYQQKPGQAPRLLIYGASSRATGIPDRFSGSGSGTDFTLTISRLEPEDFAVYYCQHYGSSGPWTFGQGTKVEIK
notes: Whole human IgG; also called DMAb-Des2_GP
binding result [2]: binds

B8: 2196 HC + 2072 LC (antibody, V domains shown)
VH: QMQLVQSGPEVKKPGTSVKVSCKASGFTFMSSAVQWVRQARGQRLEWIGWIVIGSGNTNYAQKFQERVTITRDMSTSTAYMELSSLRSEDTAVYYCAAPYCSSISCNDGFDIWGQGTMVTVSS
VL: not shown
notes: as the heavy chain of m2; light chain of antibody 2072 (IGKV3-20, clonally related to COV2-2196); Kabat numbering; also called DMAb-2196-HC + DMAb-2072-LC
Kd [2]: 14.3 nM
